# Experimental data reported in article PMC3173194.
# Molecular target: GalNAc-glycosylated recombinant MUC2 fragment (UniProt Q02817)
# Assay: peptide or protein array
substance,measurement,value
GalNAc-T2 with a mutation in the α-lectin subdomain (GalNAc-T2^458H) (from UniProt Q10471 52-571) (enzyme),"percent of the total binding (of GalNAc-T2 to GalNAc-MUC2, with Mn2+ and UDP)",20%
